These results are taken from patent US20140193401A1 (published 2014).

Substitutions are numbered along the chain they refer to.

One test addresses T1, PTx-S1-220 Y8A (Bordetella pertussis, UniProt P04977 35-254).
T1 chain: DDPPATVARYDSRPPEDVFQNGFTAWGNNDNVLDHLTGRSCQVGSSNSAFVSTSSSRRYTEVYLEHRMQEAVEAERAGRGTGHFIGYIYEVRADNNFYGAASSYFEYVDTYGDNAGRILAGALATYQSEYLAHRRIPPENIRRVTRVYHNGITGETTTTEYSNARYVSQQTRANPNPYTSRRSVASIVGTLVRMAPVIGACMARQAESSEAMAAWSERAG
Description: Western blot with mAb 1B7; paragraph 150 says 1B7 was unable to bind Y8A. A general note: In western blotting, separated proteins are transferred to a membrane and probed.

The next test deals with T2, PTx-S1-220 Y166A (Bordetella pertussis, UniProt P04977 35-254).
T2 chain: T1 chain with A8Y, Y166A
Description: SPR (BIAcore 3000), mAb 1B7 immobilised on CM5 chip, toxin injected. In general terms: SPR reads the build-up and loss of mass on a sensor chip optically.

A further test addresses T3, PTx-S1-220 T159A (Bordetella pertussis, UniProt P04977 35-254).
T3 chain: T1 chain with A8Y, T159A
The description is as above.

In another test the target is T4, PTx-S1-220 T81A (Bordetella pertussis, UniProt P04977 35-254).
T4 chain: T1 chain with A8Y, T81A
The description is as above.

The target in a further test is T5, PTx-S1-220 N176A (Bordetella pertussis, UniProt P04977 35-254).
T5 chain: T1 chain with A8Y, N176A
The description is as above.

A further test addresses T6, PTx-S1-220 T158A (Bordetella pertussis, UniProt P04977 35-254).
T6 chain: T1 chain with A8Y, T158A
Described as above.

A further test concerns the target T7, PTx-S1-220 E210A (Bordetella pertussis, UniProt P04977 35-254).
T7 chain: T1 chain with A8Y, E210A
The test is described as above.

In test [1] the target is T8, PTx-S1-220 (truncated PTx-S1, residues 1-220, strain Tohama I, variant B) (Bordetella pertussis, UniProt P04977 35-254).
T8 sequence: T1 chain with A8Y

Test [2] deals with pertussis toxin B-oligomer (Bordetella pertussis, UniProt P04978 31-226; P04979 32-227; P0A3R5 43-152; P04981 36-133). Description: ELISA repeated with mAb 1B7; EC50 as percent of the PTx reference.
In test [3] the target is pertussis toxin holotoxin (Bordetella pertussis, UniProt P04977 35-269; P04978 31-226; P04979 32-227; P0A3R5 43-152; P04981 36-133). Briefly: cell-based or functional assay.
The target of test [4] is pertussis toxin subunit S2 (Bordetella pertussis, UniProt P04978 28-226). Briefly: Western blot of B-oligomer and PTx.
Test [5] addresses pertussis toxin subunit S3 (Bordetella pertussis, UniProt P04979 29-227). Description: Western blot of B-oligomer and PTx.
Test [6] concerns the target pertussis toxin subunit S5 (Bordetella pertussis, UniProt P04981 35-133). Briefly: Western blot of B-oligomer and PTx.
The target of test [7] is pertussis toxin subunit S4 (Bordetella pertussis, UniProt P0A3R5 43-152). Description: Western blot of B-oligomer and PTx.

B1: murine monoclonal antibody 1B7 (antibody, V domains shown)
VH: EVQLQQSGSELVRPGASVKLSCKASGYKFTSYWMHWVKQRPGQGLEWIGNIFPGSGSTNYDEKFNSKATLTVDTSSNTAYMQLSSLTSEDSAVYYCTRWLSGAYFDYWGQGTTLTVSS
VL: DIQMTQSPALMSASPGEKVTMTCSASSSVSFMYWYQQKPRSSPKPWIYLTSNLPSGVPARFSGSGSGTSYSLTISSMEAEDAATYYCQQWSSHPPTFGSGTKLEIKR
notes: also called mAb 1B7; 1B7 mAb
In the case of B1, the binding result (in the test with PTx-S1-220 Y8A; in test [4]; in [5]; in test [6]; in test [7]) was “no binding” in each case. The koff in the test with PTx-S1-220 Y166A worked out at 0.0014 s⁻¹; with PTx-S1-220 T159A, 0.0014 s⁻¹; with PTx-S1-220 T81A, 0.0017 s⁻¹; with PTx-S1-220 N176A, 0.0011 s⁻¹; in the test with PTx-S1-220 T158A, 0.0013 s⁻¹; with PTx-S1-220 E210A, 0.0016 s⁻¹. In addition, the koff in test [1] is 0.0019 s⁻¹. The “% EC50 PTx” value in [2] worked out at 30%. Besides, the “In Vitro Neutralization (nM), minimum protective concentration, CHO clustering assay” value in test [3] came out at 5.2 nM.

One may read the koff as the rate constant with which the complex falls apart. Lower therefore signals a long-lived complex.
